From article PMC10998907

Columns and labels:
[1] = target: NiV-RBP ectodomain homotetramer (Nipah virus); assay: cryo-EM structure
[2] = target: NiV-RBP ectodomain (NiV attachment glycoprotein ectodomain), homotetramer (Nipah virus) (UniProt Q9IH62); assay: negative-stain EM

Substance	stoichiometry N [1]	stoichiometry N [2]
NiV-RBP ectodomain homotetramer (domain or fragment)	4	
NiV-RBP ectodomain (NiV attachment glycoprotein ectodomain), homotetramer (from UniProt Q9IH62 1-602) (domain or fragment)		4
